# Target: FZDs (endogenous Frizzled receptors of the cells used: HEK293T cells; CSPG4 KO HeLa cells)
# Test: cell-based or functional assay
substance,measurement,value
TcdB^GFE (full length TcdB with 1595VNFLQS replaced by GFE) (from UniProt P18177 1-2366),"toxicity on CSPG4 KO HeLa cells, cell-rounding assay (CR50), against WT TcdB",190 fold

# Reference: patent US20200339636A1
